# Residue numbers refer to the chain shown, from its start. In names and notes the source's numbering stands.
# B1: Eg5 phosphorylated at threonine 937 by Cdk1/cyclin B in vitro (natural protein)
# chain: MSSQNSFMASKKEDKGKNIQVVVRCRPFNQLERKASSHSVLECDSQRKEVYVRTGEVNDKLGKKTYTFDMVFGPAAKQIEVYRSVVCPILDEVIMGYNCTIFAYGQTGTGKTFTMEGERSSDEEFTWEQDPLAGIIPRTLHQIFEKLSENGTEFSVKVSLLEIYNEELFDLLSPSPDVGERLQMFDDPRNKRGVIIKGLEEISVHNKDEVYHILERGAARRKTASTLMNAYSSRSHSVFSVTIHMKETTVDGEELVKIGKLNLVDLAGSENIGRSGAVDKRAREAGNINQSLLTLGRVITALVERTPHIPYRESKLTRILQDSLGGRTKTSIIATVSPASINLEETVSTLDYANRAKSIMNKPEVNQKLTKKALIKEYTEEIERLKRELAAAREKNGVYLSSENYEQLQGKVLSQEEMITEYTEKITAMEEELKSISELFADNKKELEECTTILQCKEKELEETQNHLQESKEQLAQESFVVSAFETTEKKLHGTANKLLSTVRETTRDVSGLHEKLDRKKAVDQHNFQVHENFAEQMDRRFSVIQRTVDDYSVKQQGMLDFYTNSIDDLLGASSSRLSATASAVAKSFASVQETVTKQVSHSVEEILKQETLSSQAKGDLQQLMAAHRTGLEEALRSDLLPVVTAVLDLNSHLSHCLQNFLIVADKIDSHKEDMNSFFTEHSRSLHKLRLDSSSALSSIQSEYESLKEDIATAQSMHSEGVNNLISSLQNQLNLLGMETQQQFSGFLSKGGKLQKSVGSLQQDLDLVSSEAIECISSHHKKLAEQSQDVAVEIRQLAGSNMSTLEESSKQCEKLTSSINTISQESQQWCESAGQKIDSVLEEQVCYLHSSKKHLQNLHKGVEDSCGSSVVEITDRVNAQRQAEEKALTSLVEQVRDDQEMVGEQRLELQEQVQSGLNKVHSYLKEELRNDVPTGTTPQRRDYAYPSLLVKTKPRDVLLEQFRQQQQEYLESISSVISEAVEPPVEQDSLEDEPPVAVNDSVISERSCIDLSMTCQEKGGIRFFQQKKALRKEKENRGNTTLLERSKIMDEVDQALTKSKLPLRMQN
# modifications: phosphothreonine at 937 (degree of phosphorylation 87.9% per polypeptide chain)
# B2: Eg5 (wild-type full-length Xenopus laevis Eg5), not phosphorylated (natural protein)
# chain: B1 chain
# B3: Eg5_(T937A) (non-phosphorylatable mutant of full-length Xenopus laevis Eg5) (natural protein)
# chain: B1 chain with T937A
# B4: Eg5_(T937A)-GFP (non-phosphorylatable mutant of Xenopus laevis Eg5 with C-terminal GFP) (natural protein)
# chain: B1 chain with T937A
# What was measured:
# [1] = target: microtubules (purified tubulin, polymerised in buffer); test: TIRF of Eg5-GFP on immobilised GMPCPP microtubules; conditions: reference: wild-type Eg5-GFP, Cdk1-treated; sites T937
# [2] = target: Alexa-568 labeled microtubules (paclitaxel-stabilised) (UniProt P02550)
# [3] = target: spindle microtubules in Xenopus egg extract (Xenopus laevis (endogenous in egg extract)); test: fluorescence microscopy of fixed spindles (GFP intensity per TAMRA-tubulin intensity); endogenous Eg5 immunodepleted from Xenopus egg extract and replaced by recombinant Eg5-GFP constructs; spindle structures fixed after 45 min, spun onto coverslips; ratios normalised to 1 at 460 nM Eg5-GFP
# Chain of UniProt P02550 (P02550 whole entry, looked up): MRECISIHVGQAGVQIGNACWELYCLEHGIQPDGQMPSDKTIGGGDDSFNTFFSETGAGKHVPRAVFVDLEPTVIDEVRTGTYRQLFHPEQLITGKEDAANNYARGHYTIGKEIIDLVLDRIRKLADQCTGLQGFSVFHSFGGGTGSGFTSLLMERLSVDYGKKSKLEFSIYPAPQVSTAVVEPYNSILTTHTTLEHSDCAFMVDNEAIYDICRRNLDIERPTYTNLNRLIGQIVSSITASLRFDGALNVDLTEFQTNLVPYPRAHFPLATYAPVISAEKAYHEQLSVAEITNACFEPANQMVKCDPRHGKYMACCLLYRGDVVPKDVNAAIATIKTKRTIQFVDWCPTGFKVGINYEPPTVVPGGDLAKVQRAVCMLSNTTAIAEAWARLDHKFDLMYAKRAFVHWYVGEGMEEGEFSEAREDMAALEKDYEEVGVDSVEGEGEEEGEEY
molecule,measurement,setting,value
"Eg5 1-1067 Eg5T937A-GFP, Cdk1-treated",other: mean GFP intensity on microtubules at 15 nM Eg5,[1],weaker; reference 1226±39
B1,"velocity in microtubule gliding assay (surface-adsorbed motor, 21°C)",[2],1.7 µm/min
B2,"velocity in microtubule gliding assay (surface-adsorbed motor, 21°C)",[2],1.8 µm/min
B3,"velocity in microtubule gliding assay relative to wild-type Eg5, with or without Cdk1/cyclin B",[2],88%
B4,"fold lower amount bound than wild-type Eg5-GFP, at endogenous concentration",[3],20 fold

# From article PMC2592692
